We go through one molecule from patent US20250213666A1 (UNIVERSITY OF CINCINNATI, published 2025).

This test has as its target T1, Intimin-spike fusion protein (Intimin-Spike-RBD) surface displayed on E. coli Nissle 1917 (SARS-CoV-2).
T1 construct: also called pInt-spike; pInt-Spike-RBD
The experiment in a line: cell aggregation assay (OD600) of nanobody-bearing EcN with spike-bearing EcN.

B1: Lpp-OmpA-VHH72 nanobody (pLpp-OmpA-VHH72), surface displayed on E. coli Nissle 1917 or on its OMVs (VHH)
chain: CSSNAKIDQGINNNGPTHENQLGAGAFGGYQVNPYVGFEMGYDWLGRMPYKGSVENGAYKAQGVQLTAKLGYPITDDLDIYTRLGGMVWRADTKSNVYGKNHDTGVSPVFAGGVEYAITPEIATRKLENLYFQGTRQVQLQESGGGLVQAGGSLRLSCAASGRTFSEYAMGWFRQAPGKEREFVATISWSGGSTYYTDSVKGRFTISRDNAKNTVYLQMNSLKPDDTAVYYCAAAGLGTVVSEWDYDYDYWGQGTQVTVSSGSGSENLYFQGDYKDDDDKWSHPQFEKSR
notes: also called pLpp-OmpA-VHH72 Nb; Lpp-OmpA-VHH72 Nb
Take B1: the binding result was “no binding”.
